For one substance, response results are on record in PMC11381347.

The target of this test is N-terminal SmBiT-tagged SETD1A FLOS domain fragment (Sm-FO3). The experiment in a line: split-NanoLuciferase-complementation assay with non-tagged competitor. The conditions noted are these: Sm-FO3 + N200-Lg with non-tagged competitor construct; parent: est. 3.6; read off a plot.

In the case of “non-tagged BOD1L Shg1 fragment N200 (competitor) (from UniProt Q8NFC6) W104A”, the response was 7.6 RLU, x10^5.
